Results from paper PMC9482650, “Quantitative fragmentomics allow affinity mapping of interactomes” (Nature Communications, 2022).

How the values were obtained:
Test in all cases: holdup assay
Design in all cases: key: below the threshold = too weak to quantify, mostly under pKd 3.1 to 4
[1] = target: T1, APBA1_1, Q02410
T1 sequence (Q02410 651-752, limits assumed, looked up): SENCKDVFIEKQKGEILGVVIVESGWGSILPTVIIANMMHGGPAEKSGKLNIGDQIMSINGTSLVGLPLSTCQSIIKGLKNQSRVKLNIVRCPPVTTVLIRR

[2] = target: T2, APBA1_2, Q02410
T2 sequence (Q02410 742-832, limits assumed, looked up): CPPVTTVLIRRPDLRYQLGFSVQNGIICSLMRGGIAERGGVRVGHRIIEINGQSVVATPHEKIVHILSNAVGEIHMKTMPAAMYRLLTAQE

[3] = target: T3, ARHGAP21, Q5T5U3
T3 sequence (Q5T5U3 45-169, limits assumed, looked up): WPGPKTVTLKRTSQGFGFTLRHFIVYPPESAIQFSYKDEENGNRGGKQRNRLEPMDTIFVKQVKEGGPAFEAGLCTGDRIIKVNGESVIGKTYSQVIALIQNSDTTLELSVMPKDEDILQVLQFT

[4] = target: T4, ARHGEF11, O15085
T4 sequence (O15085 42-136, limits assumed, looked up): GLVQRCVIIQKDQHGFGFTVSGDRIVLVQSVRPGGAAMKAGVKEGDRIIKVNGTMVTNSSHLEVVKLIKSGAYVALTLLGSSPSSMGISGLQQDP

[5] = target: T5, DFNB31_3, Q9P202
T5 sequence (Q9P202 811-907, limits assumed, looked up): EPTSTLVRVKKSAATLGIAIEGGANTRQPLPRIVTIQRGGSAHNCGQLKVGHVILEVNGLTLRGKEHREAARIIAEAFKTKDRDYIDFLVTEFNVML

[6] = target: DLG2_3, Q15700
[7] = target: DLG4_3, P78352
Chain of DLG4_3, P78352 (P78352 306-403): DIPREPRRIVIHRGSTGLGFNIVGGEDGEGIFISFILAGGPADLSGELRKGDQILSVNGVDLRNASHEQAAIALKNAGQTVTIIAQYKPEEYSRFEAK

[8] = target: T6, FRMPD1, Q5SYB0
T6 sequence (Q5SYB0 52-145, limits assumed, looked up): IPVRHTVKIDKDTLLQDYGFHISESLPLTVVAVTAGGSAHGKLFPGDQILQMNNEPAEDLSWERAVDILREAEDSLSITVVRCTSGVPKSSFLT

[9] = target: FRMPD3, Q5JV73
Chain of FRMPD3, Q5JV73 (Q5JV73 12-100): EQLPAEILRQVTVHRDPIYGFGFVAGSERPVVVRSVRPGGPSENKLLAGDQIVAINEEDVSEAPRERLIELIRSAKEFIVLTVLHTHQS

[10] = target: GORASP2, Q9H8Y8
[11] = target: GRID2IP_2, A4D2P6
Chain of GRID2IP_2, A4D2P6 (A4D2P6 272-370): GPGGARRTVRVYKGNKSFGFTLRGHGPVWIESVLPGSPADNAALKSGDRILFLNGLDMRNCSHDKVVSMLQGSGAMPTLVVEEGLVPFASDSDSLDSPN

[12] = target: GRIP2_3, Q9C0E4
Chain of GRIP2_3, Q9C0E4 (Q9C0E4 238-339): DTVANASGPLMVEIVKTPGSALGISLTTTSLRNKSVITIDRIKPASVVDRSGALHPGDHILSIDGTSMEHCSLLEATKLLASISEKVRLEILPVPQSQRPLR

[13] = target: Inadl_1, Q8NI35
Chain of Inadl_1, Q8NI35 (Q8NI35 113-229): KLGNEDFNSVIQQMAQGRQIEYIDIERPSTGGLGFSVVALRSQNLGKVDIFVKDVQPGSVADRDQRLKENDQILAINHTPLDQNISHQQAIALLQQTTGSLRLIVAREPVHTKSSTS

[14] = target: LAP2, Q96RT1
Chain of LAP2, Q96RT1 (Q96RT1 other isoform, or with tags, fused parts or gaps): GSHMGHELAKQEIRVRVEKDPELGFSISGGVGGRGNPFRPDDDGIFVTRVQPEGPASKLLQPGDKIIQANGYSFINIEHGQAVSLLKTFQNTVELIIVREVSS

[15] = target: T7, LIN7C, Q9NUP9
T7 sequence (Q9NUP9 88-185, limits assumed, looked up): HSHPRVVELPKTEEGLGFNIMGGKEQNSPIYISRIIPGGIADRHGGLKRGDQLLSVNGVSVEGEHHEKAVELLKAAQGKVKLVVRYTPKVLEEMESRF

[16] = target: MAGI2_5, Q86UL8
Chain of MAGI2_5, Q86UL8 (Q86UL8 915-1017): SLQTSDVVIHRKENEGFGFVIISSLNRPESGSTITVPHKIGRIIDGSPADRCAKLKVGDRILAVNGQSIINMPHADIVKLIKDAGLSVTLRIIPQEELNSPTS

[17] = target: MAGI3_2, Q5TCQ9
Chain of MAGI3_2, Q5TCQ9 (Q5TCQ9 398-503): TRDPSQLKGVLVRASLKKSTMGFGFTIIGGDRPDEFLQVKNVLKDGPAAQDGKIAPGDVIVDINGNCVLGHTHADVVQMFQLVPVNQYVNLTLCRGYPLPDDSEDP

[18] = target: MAST1, Q9Y2H9
Chain of MAST1, Q9Y2H9 (Q9Y2H9 962-1065): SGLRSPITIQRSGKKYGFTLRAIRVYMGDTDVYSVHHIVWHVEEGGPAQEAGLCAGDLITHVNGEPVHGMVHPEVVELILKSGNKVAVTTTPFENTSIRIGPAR

[19] = target: NHERF2_2, Q15599
Chain of NHERF2_2, Q15599 (Q15599 142-238): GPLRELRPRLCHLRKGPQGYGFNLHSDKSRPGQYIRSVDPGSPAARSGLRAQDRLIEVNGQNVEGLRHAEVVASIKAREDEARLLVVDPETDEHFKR

[20] = target: NHERF4_4, Q86UT5
Chain of NHERF4_4, Q86UT5 (Q86UT5 464-550): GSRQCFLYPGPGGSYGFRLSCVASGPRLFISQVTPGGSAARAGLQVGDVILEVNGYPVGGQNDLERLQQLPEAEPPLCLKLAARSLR

[21] = target: NOS1, P29475
Chain of NOS1, P29475 (P29475 9-101): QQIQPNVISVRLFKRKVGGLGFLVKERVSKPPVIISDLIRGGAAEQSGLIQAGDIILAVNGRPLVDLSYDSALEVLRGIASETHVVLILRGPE

[22] = target: T8, PDZD2_2, O15018
T8 sequence (O15018 329-429, limits assumed, looked up): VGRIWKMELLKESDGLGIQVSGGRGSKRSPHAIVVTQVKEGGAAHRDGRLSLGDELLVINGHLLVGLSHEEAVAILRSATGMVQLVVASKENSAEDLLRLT

[23] = target: SCRIB_3, Q14160
Chain of SCRIB_3, Q14160 (Q14160 999-1103): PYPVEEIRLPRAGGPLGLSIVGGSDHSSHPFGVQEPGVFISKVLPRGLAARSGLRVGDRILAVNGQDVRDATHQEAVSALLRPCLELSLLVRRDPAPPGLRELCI

[24] = target: T9, SNTG2, Q9NY99
T9 sequence (Q9NY99 68-166, limits assumed, looked up): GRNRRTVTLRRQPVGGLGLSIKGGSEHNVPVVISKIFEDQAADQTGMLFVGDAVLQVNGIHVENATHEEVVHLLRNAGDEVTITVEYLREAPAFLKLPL

[25] = target: SNX27, Q96L92
[26] = target: T10, TJP3_3, O95049
T10 sequence (O95049 375-456, limits assumed, looked up): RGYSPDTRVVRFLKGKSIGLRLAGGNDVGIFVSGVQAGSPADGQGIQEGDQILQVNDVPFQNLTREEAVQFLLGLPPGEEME

[27] = target: T11, TX1BP3, O14907
T11 sequence (O14907 10-122, limits assumed, looked up): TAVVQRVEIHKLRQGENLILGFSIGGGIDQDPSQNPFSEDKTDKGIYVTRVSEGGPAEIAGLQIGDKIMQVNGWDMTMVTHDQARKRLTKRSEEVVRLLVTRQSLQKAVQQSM

[28] = plain residues with an end cap or a label only (N-terminal biotin on a linker: ado-ado)
[29] = plain residues with an end cap or a label only (N-terminal biotin on a linker: ttds)
[30] = plain residues with an end cap or a label only (N-terminal biotin on a linker: ahx)

Binder: PDSYHRRDFW [U2AF2, P26368]
- pKd [1, 28]: below the threshold
- pKd [2, 28]: below the threshold
- pKd [3, 28]: 4.08
- pKd [4, 28]: 3.6
- pKd [5, 28]: below the threshold
- pKd [6, 28]: below the threshold
- pKd [7, 28]: below the threshold
- pKd [8, 28]: below the threshold
- pKd [9, 28]: below the threshold
- pKd [10, 28]: below the threshold
- pKd [11, 28]: below the threshold
- pKd [12, 28]: below the threshold
- pKd [13, 28]: below the threshold
- pKd [14, 28]: below the threshold
- pKd [15, 28]: below the threshold
- pKd [16, 28]: below the threshold
- pKd [17, 28]: below the threshold
- pKd [18, 28]: 3.49
- pKd [19, 28]: 3.79
- pKd [20, 28]: below the threshold
- pKd [21, 28]: below the threshold
- pKd [22, 28]: below the threshold
- pKd [23, 28]: below the threshold
- pKd [24, 28]: 3.72
- pKd [25, 28]: 3.61
- pKd [26, 28]: below the threshold
- pKd [27, 28]: below the threshold

Binder: QRPYRRESEI [KCNJ12, Q14500]
- pKd [1, 29]: below the threshold
- pKd [2, 29]: below the threshold
- pKd [3, 29]: below the threshold
- pKd [4, 29]: below the threshold
- pKd [5, 29]: below the threshold
- pKd [6, 29]: 4.65
- pKd [7, 29]: 4.31
- pKd [8, 29]: below the threshold
- pKd [9, 29]: below the threshold
- pKd [10, 29]: 3.74
- pKd [11, 29]: below the threshold
- pKd [12, 29]: below the threshold
- pKd [13, 29]: below the threshold
- pKd [14, 29]: below the threshold
- pKd [15, 29]: below the threshold
- pKd [16, 29]: below the threshold
- pKd [17, 29]: 4.75
- pKd [18, 29]: below the threshold
- pKd [19, 29]: below the threshold
- pKd [20, 29]: below the threshold
- pKd [21, 29]: 3.53
- pKd [22, 29]: 4.26
- pKd [23, 29]: 4.76
- pKd [24, 29]: 3.63
- pKd [25, 29]: below the threshold
- pKd [26, 29]: below the threshold
- pKd [27, 29]: 4.64

Binder: AKPQPVDSWV [ARVCF, O00192]
- pKd [1, 30]: below the threshold
- pKd [2, 30]: 4.62
- pKd [3, 30]: below the threshold
- pKd [4, 30]: below the threshold
- pKd [5, 30]: below the threshold
- pKd [6, 30]: 4.06
- pKd [7, 30]: below the threshold
- pKd [8, 30]: below the threshold
- pKd [9, 30]: below the threshold
- pKd [10, 30]: 4.51
- pKd [11, 30]: below the threshold
- pKd [12, 30]: below the threshold
- pKd [13, 30]: below the threshold
- pKd [14, 30]: 5.73
- pKd [15, 30]: below the threshold
- pKd [16, 30]: below the threshold
- pKd [17, 30]: 3.68
- pKd [18, 30]: below the threshold
- pKd [19, 30]: below the threshold
- pKd [20, 30]: below the threshold
- pKd [21, 30]: 3.85
- pKd [22, 30]: 5.95
- pKd [23, 30]: 3.95
- pKd [24, 30]: below the threshold
- pKd [25, 30]: 5.15
- pKd [26, 30]: 4.73
- pKd [27, 30]: 4.92

Binder: KDECVIATEV [DLL1, O00548]
- pKd [1, 30]: below the threshold
- pKd [2, 30]: 3.99
- pKd [3, 30]: below the threshold
- pKd [4, 30]: 4.51
- pKd [5, 30]: below the threshold
- pKd [6, 30]: 4.13
- pKd [7, 30]: below the threshold
- pKd [8, 30]: below the threshold
- pKd [9, 30]: below the threshold
- pKd [10, 30]: below the threshold
- pKd [11, 30]: 3.48
- pKd [12, 30]: below the threshold
- pKd [13, 30]: below the threshold
- pKd [14, 30]: 3.59
- pKd [15, 30]: below the threshold
- pKd [16, 30]: 5.32
- pKd [17, 30]: below the threshold
- pKd [18, 30]: 4.38
- pKd [19, 30]: below the threshold
- pKd [20, 30]: below the threshold
- pKd [21, 30]: 3.55
- pKd [22, 30]: 4.51
- pKd [23, 30]: 4.11
- pKd [24, 30]: below the threshold
- pKd [25, 30]: 4.36
- pKd [26, 30]: below the threshold
- pKd [27, 30]: below the threshold

Binder: NPDALPETLV [ARHGAP6, O43182]
- pKd [1, 29]: below the threshold
- pKd [2, 29]: below the threshold
- pKd [3, 29]: below the threshold
- pKd [4, 29]: 4.09
- pKd [5, 29]: 4.1
- pKd [6, 29]: 4.01
- pKd [7, 29]: 3.46
- pKd [8, 29]: below the threshold
- pKd [9, 29]: below the threshold
- pKd [10, 29]: below the threshold
- pKd [11, 29]: 3.8
- pKd [12, 29]: below the threshold
- pKd [13, 29]: below the threshold
- pKd [14, 29]: 3.8
- pKd [15, 29]: 4.31
- pKd [16, 29]: 4.45
- pKd [17, 29]: 4.6
- pKd [18, 29]: 4.38
- pKd [19, 29]: below the threshold
- pKd [20, 29]: below the threshold
- pKd [21, 29]: 3.92
- pKd [22, 29]: 4.12
- pKd [23, 29]: 3.99
- pKd [24, 29]: 4.95
- pKd [25, 29]: 4.7
- pKd [26, 29]: below the threshold
- pKd [27, 29]: below the threshold
